Assay results: patent US20220119549A1 (TAVOTEK BIOTHERAPEUTICS HONG KONG, published 2022)

Molecular target: T1, recombinant human TNFα (human, UniProt P01375 77-233)
T1 construct: Bought protein
Test: ELISA on human TNFα

T1 sequence (P01375 77-233 limits assumed): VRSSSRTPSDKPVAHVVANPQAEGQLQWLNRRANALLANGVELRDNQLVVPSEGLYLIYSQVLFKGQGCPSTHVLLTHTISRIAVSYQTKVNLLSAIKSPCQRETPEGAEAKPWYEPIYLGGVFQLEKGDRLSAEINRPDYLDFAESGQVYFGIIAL

| Binder | binding result | fold more reduced binding affinity than TAVO190191 [fold] |
| --- | --- | --- |
| TAVO190197 after digestion by both MMP2 and MMP3 (antibody, Both chains cut; not shown: remnant of the MMP2-cleavable linker left after cleavage; remnant of the MMP3-cleavable linker left after cleavage) heavy: EVQLVESGGGLVQPGGSLRLSCAASGFDFADYAMHWVRQAPGKGLEWVSAITWNGGHTDYADSVKGRFTISRDNSKNTLYLQMNSLRAEDTAVYYCAKVSYLSTASSLDYWGQGTLVTVSSASTKGPSVFPLAPSSKSTSGGTAALGCLVKDYFPEPVTVSWNSGALTSGVHTFPAVLQSSGLYSLSSVVTVPSSSLGTQTYICNVNHKPSNTKVDKKVEPKSCDKTHTCPPCPAPPAAGPSVFLFPPKPKDTLMISRTPEVTCVVVDVSHEDPEVKFNWYVDGVEVHNAKTKPREEQYNSTYRVVSVLTVLHQDWLNGKEYKCKVSNKALPAPIEKTISKAKGQPREPQVYTLPPSRDELTKNQVSLTCLVKGFYPSDIAVEWESNGQPENNYKTTPPVLDSDGSFLLYSKLTVDKSRWQQGNVFSCSVLHEALHSHYTQKSLSLSPGK light: not shown | binds |  |
| TAVO271272 (antibody, human IgG1, kappa, Undigested; ADA-H2X / ADA-L1; also called anti-TNFα shielded antibody with variant IGF2-based masking domain; EAC271/EAC272) heavy: GILEECCFRSCDLALLETYCAGGGGSPLGLAGGGGGSEVQLVESGGGLVQPGGSLRLSCAASGFDFADYAMHWVRQAPGKGLEWVSAITWNGGHTDYADSVKGRFTISRDNSKNTLYLQMNSLRAEDTAVYYCAKVSYLSTASSLDYWGQGTLVTVSSASTKGPSVFPLAPSSKSTSGGTAALGCLVKDYFPEPVTVSWNSGALTSGVHTFPAVLQSSGLYSLSSVVTVPSSSLGTQTYICNVNHKPSNTKVDKKVEPKSCDKTHTCPPCPAPPAAGPSVFLFPPKPKDTLMISRTPEVTCVVVDVSHEDPEVKFNWYVDGVEVHNAKTKPREEQYNSTYRVVSVLTVLHQDWLNGKEYKCKVSNKALPAPIEKTISKAKGQPREPQVYTLPPSRDELTKNQVSLTCLVKGFYPSDIAVEWESNGQPENNYKTTPPVLDSDGSFLLYSKLTVDKSRWQQGNVFSCSVLHEALHSHYTQKSLSLSPGK light: not shown |  | 8 |
| TAVO271585 (antibody, human IgG1, kappa, Variant IGF2 mask; ADA-H2X / ADA-L2; also called EAC271/EAC585) heavy: GILEECCFRSCDLALLETYCAGGGGSPLGLAGGGGGSEVQLVESGGGLVQPGGSLRLSCAASGFDFADYAMHWVRQAPGKGLEWVSAITWNGGHTDYADSVKGRFTISRDNSKNTLYLQMNSLRAEDTAVYYCAKVSYLSTASSLDYWGQGTLVTVSSASTKGPSVFPLAPSSKSTSGGTAALGCLVKDYFPEPVTVSWNSGALTSGVHTFPAVLQSSGLYSLSSVVTVPSSSLGTQTYICNVNHKPSNTKVDKKVEPKSCDKTHTCPPCPAPPAAGPSVFLFPPKPKDTLMISRTPEVTCVVVDVSHEDPEVKFNWYVDGVEVHNAKTKPREEQYNSTYRVVSVLTVLHQDWLNGKEYKCKVSNKALPAPIEKTISKAKGQPREPQVYTLPPSRDELTKNQVSLTCLVKGFYPSDIAVEWESNGQPENNYKTTPPVLDSDGSFLLYSKLTVDKSRWQQGNVFSCSVLHEALHSHYTQKSLSLSPGK light: AYRPSETLCGGELVDTLQFVCGDRGFAFGGGGSPLGLAGGGGGSDIVMTQSPDSLAVSLGERATINCRASQGIRNYLAWYQQKPGQAPKLLIYAASTLQSGVPDRFSGSGSGTDFTLTISSLQAEDVAVYYCQRYNRAPYTFGQGTKVEIKRTVAAPSVFIFPPSDEQLKSGTASVVCLLNNFYPREAKVQWKVDNALQSGNSQESVTEQDSKDSTYSLSSTLTLSKADYEKHKVYACEVTHQGLSSPVTKSFNRGEC | binds |  |
| TAVO190197 (antibody, human IgG1, kappa, Undigested; also called anti-TNFα shielded antibody with two different types of protease-cleavable linkers; undigested TAVO190197) heavy: GIVEECCFRSCDLALLETYCAGGGGSPLGLAGGGGGSEVQLVESGGGLVQPGGSLRLSCAASGFDFADYAMHWVRQAPGKGLEWVSAITWNGGHTDYADSVKGRFTISRDNSKNTLYLQMNSLRAEDTAVYYCAKVSYLSTASSLDYWGQGTLVTVSSASTKGPSVFPLAPSSKSTSGGTAALGCLVKDYFPEPVTVSWNSGALTSGVHTFPAVLQSSGLYSLSSVVTVPSSSLGTQTYICNVNHKPSNTKVDKKVEPKSCDKTHTCPPCPAPPAAGPSVFLFPPKPKDTLMISRTPEVTCVVVDVSHEDPEVKFNWYVDGVEVHNAKTKPREEQYNSTYRVVSVLTVLHQDWLNGKEYKCKVSNKALPAPIEKTISKAKGQPREPQVYTLPPSRDELTKNQVSLTCLVKGFYPSDIAVEWESNGQPENNYKTTPPVLDSDGSFLLYSKLTVDKSRWQQGNVFSCSVLHEALHSHYTQKSLSLSPGK light: not shown | binds |  |
| TAVO578272 (antibody, human IgG1, kappa, Variant IGF2 mask; ADA-H1 / ADA-L1; also called EAC578/EAC272) heavy: GILEECCFRSCDLALLETYCAGGGGSPLGLAGGGGGSEVQLVESGGVVVQPGGSLRLSCAASGFTFDDYAMHWVRQAPGKGLEWVSAITWNSGHIDYADSVKGRFTISRDNSKNSLYLQMNSLRTEDTALYYCAKVSYLSTASSLDYWGQGTLVTVSSASTKGPSVFPLAPSSKSTSGGTAALGCLVKDYFPEPVTVSWNSGALTSGVHTFPAVLQSSGLYSLSSVVTVPSSSLGTQTYICNVNHKPSNTKVDKKVEPKSCDKTHTCPPCPAPPAAGPSVFLFPPKPKDTLMISRTPEVTCVVVDVSHEDPEVKFNWYVDGVEVHNAKTKPREEQYNSTYRVVSVLTVLHQDWLNGKEYKCKVSNKALPAPIEKTISKAKGQPREPQVYTLPPSRDELTKNQVSLTCLVKGFYPSDIAVEWESNGQPENNYKTTPPVLDSDGSFLLYSKLTVDKSRWQQGNVFSCSVLHEALHSHYTQKSLSLSPGK light: not shown | binds |  |
| TAVO579585 (antibody, human IgG1, kappa, Variant IGF2 mask; ADA-H1X / ADA-L2; also called EAC579/EAC585) heavy: GILEECCFRSCDLALLETYCAGGGGSPLGLAGGGGGSEVQLVESGGVVVQPGGSLRLSCAASGFDFADYAMHWVRQAPGKGLEWVSAITWNGGHTDYADSVKGRFTISRDNSKNSLYLQMNSLRTEDTALYYCAKVSYLSTASSLDYWGQGTLVTVSSASTKGPSVFPLAPSSKSTSGGTAALGCLVKDYFPEPVTVSWNSGALTSGVHTFPAVLQSSGLYSLSSVVTVPSSSLGTQTYICNVNHKPSNTKVDKKVEPKSCDKTHTCPPCPAPPAAGPSVFLFPPKPKDTLMISRTPEVTCVVVDVSHEDPEVKFNWYVDGVEVHNAKTKPREEQYNSTYRVVSVLTVLHQDWLNGKEYKCKVSNKALPAPIEKTISKAKGQPREPQVYTLPPSRDELTKNQVSLTCLVKGFYPSDIAVEWESNGQPENNYKTTPPVLDSDGSFLLYSKLTVDKSRWQQGNVFSCSVLHEALHSHYTQKSLSLSPGK light: AYRPSETLCGGELVDTLQFVCGDRGFAFGGGGSPLGLAGGGGGSDIVMTQSPDSLAVSLGERATINCRASQGIRNYLAWYQQKPGQAPKLLIYAASTLQSGVPDRFSGSGSGTDFTLTISSLQAEDVAVYYCQRYNRAPYTFGQGTKVEIKRTVAAPSVFIFPPSDEQLKSGTASVVCLLNNFYPREAKVQWKVDNALQSGNSQESVTEQDSKDSTYSLSSTLTLSKADYEKHKVYACEVTHQGLSSPVTKSFNRGEC | binds |  |
| TAVO579272 (antibody, human IgG1, kappa, Variant IGF2 mask; ADA-H1X / ADA-L1; also called EAC579/EAC272) heavy: GILEECCFRSCDLALLETYCAGGGGSPLGLAGGGGGSEVQLVESGGVVVQPGGSLRLSCAASGFDFADYAMHWVRQAPGKGLEWVSAITWNGGHTDYADSVKGRFTISRDNSKNSLYLQMNSLRTEDTALYYCAKVSYLSTASSLDYWGQGTLVTVSSASTKGPSVFPLAPSSKSTSGGTAALGCLVKDYFPEPVTVSWNSGALTSGVHTFPAVLQSSGLYSLSSVVTVPSSSLGTQTYICNVNHKPSNTKVDKKVEPKSCDKTHTCPPCPAPPAAGPSVFLFPPKPKDTLMISRTPEVTCVVVDVSHEDPEVKFNWYVDGVEVHNAKTKPREEQYNSTYRVVSVLTVLHQDWLNGKEYKCKVSNKALPAPIEKTISKAKGQPREPQVYTLPPSRDELTKNQVSLTCLVKGFYPSDIAVEWESNGQPENNYKTTPPVLDSDGSFLLYSKLTVDKSRWQQGNVFSCSVLHEALHSHYTQKSLSLSPGK light: not shown | binds |  |
| TAVO580272 (antibody, human IgG1, kappa, Variant IGF2 mask; ADA-H2 / ADA-L1; also called EAC580/EAC272) heavy: GILEECCFRSCDLALLETYCAGGGGSPLGLAGGGGGSEVQLVESGGGLVQPGGSLRLSCAASGFTFDDYAMHWVRQAPGKGLEWVSAITWNSGHIDYADSVKGRFTISRDNSKNTLYLQMNSLRAEDTAVYYCAKVSYLSTASSLDYWGQGTLVTVSSASTKGPSVFPLAPSSKSTSGGTAALGCLVKDYFPEPVTVSWNSGALTSGVHTFPAVLQSSGLYSLSSVVTVPSSSLGTQTYICNVNHKPSNTKVDKKVEPKSCDKTHTCPPCPAPPAAGPSVFLFPPKPKDTLMISRTPEVTCVVVDVSHEDPEVKFNWYVDGVEVHNAKTKPREEQYNSTYRVVSVLTVLHQDWLNGKEYKCKVSNKALPAPIEKTISKAKGQPREPQVYTLPPSRDELTKNQVSLTCLVKGFYPSDIAVEWESNGQPENNYKTTPPVLDSDGSFLLYSKLTVDKSRWQQGNVFSCSVLHEALHSHYTQKSLSLSPGK light: not shown | binds |  |
| TAVO578585 (antibody, human IgG1, kappa, Variant IGF2 mask; ADA-H1 / ADA-L2; also called EAC578/EAC585) heavy: GILEECCFRSCDLALLETYCAGGGGSPLGLAGGGGGSEVQLVESGGVVVQPGGSLRLSCAASGFTFDDYAMHWVRQAPGKGLEWVSAITWNSGHIDYADSVKGRFTISRDNSKNSLYLQMNSLRTEDTALYYCAKVSYLSTASSLDYWGQGTLVTVSSASTKGPSVFPLAPSSKSTSGGTAALGCLVKDYFPEPVTVSWNSGALTSGVHTFPAVLQSSGLYSLSSVVTVPSSSLGTQTYICNVNHKPSNTKVDKKVEPKSCDKTHTCPPCPAPPAAGPSVFLFPPKPKDTLMISRTPEVTCVVVDVSHEDPEVKFNWYVDGVEVHNAKTKPREEQYNSTYRVVSVLTVLHQDWLNGKEYKCKVSNKALPAPIEKTISKAKGQPREPQVYTLPPSRDELTKNQVSLTCLVKGFYPSDIAVEWESNGQPENNYKTTPPVLDSDGSFLLYSKLTVDKSRWQQGNVFSCSVLHEALHSHYTQKSLSLSPGK light: AYRPSETLCGGELVDTLQFVCGDRGFAFGGGGSPLGLAGGGGGSDIVMTQSPDSLAVSLGERATINCRASQGIRNYLAWYQQKPGQAPKLLIYAASTLQSGVPDRFSGSGSGTDFTLTISSLQAEDVAVYYCQRYNRAPYTFGQGTKVEIKRTVAAPSVFIFPPSDEQLKSGTASVVCLLNNFYPREAKVQWKVDNALQSGNSQESVTEQDSKDSTYSLSSTLTLSKADYEKHKVYACEVTHQGLSSPVTKSFNRGEC | binds |  |
| TAVO584272 (antibody, human IgG1, kappa, Variant IGF2 mask; ADA-H4X / ADA-L1; also called EAC584/EAC272) heavy: GILEECCFRSCDLALLETYCAGGGGSPLGLAGGGGGSQVQLVESGGGVVQPGGSLRLSCAASGFDFADYAMHWVRQAPGKGLEWVSAITWNGGHTDYADSVKGRFTISRDNSKNTLYLQMNSLRAEDTAVYYCAKVSYLSTASSLDYWGQGTLVTVSSASTKGPSVFPLAPSSKSTSGGTAALGCLVKDYFPEPVTVSWNSGALTSGVHTFPAVLQSSGLYSLSSVVTVPSSSLGTQTYICNVNHKPSNTKVDKKVEPKSCDKTHTCPPCPAPPAAGPSVFLFPPKPKDTLMISRTPEVTCVVVDVSHEDPEVKFNWYVDGVEVHNAKTKPREEQYNSTYRVVSVLTVLHQDWLNGKEYKCKVSNKALPAPIEKTISKAKGQPREPQVYTLPPSRDELTKNQVSLTCLVKGFYPSDIAVEWESNGQPENNYKTTPPVLDSDGSFLLYSKLTVDKSRWQQGNVFSCSVLHEALHSHYTQKSLSLSPGK light: not shown | binds |  |
